Test results as given in patent US6436654B1, “Methods for identifying compounds that modulate HIF-1α” (Pharmacia & Upjohn AB, priority 1998, dated 2002).

What was measured:
[1] = system: GAL4 responsive reporter plasmid; assay: Cotransfection of GAL4-HIF-1α fusion proteins with GAL4 responsive luciferase reporter; type: cell-based, simian; conditions: for GAL4 reporter transcriptional activity (in words): with or without CBP / SRC-1; for stimulation of GAL4 reporter activity by coexpressed CBP / stimulation of GAL4 reporter activity by coexpressed SRC-1: hypoxic conditions, vs hypoxia without exogenous coactivator
Text: To analyze functional activities of HIF-1α independently of the endogenous DNA binding and dimerization domains and the Arnt partner, we next fused HIF-1α to the heterologous DNA binding domain of GAL4. Functional activity of the fusion protein was monitored in COS7 cells by a cotransfection assay using a reporter gene construct carrying five GAL4 DNA binding elements in front of thymidine kinase promoter and the luciferase gene. Six hours after transfection media was changed, and cells were either left uninduced or exposed to 1% oxygen for 30 h prior to harvest. In the presence of either empty expression vector or a vector expressing the minimal GAL4 DNA binding domain, reporter gene activity was unaltered by reduced oxygen levels. […] The GAL4 DNA binding domain is known to harbor an NLS motif capable of taking fusion proteins to the nucleus (Ma and Ptashne (1987) Cell 51, 113-119). We therefore used antibodies directed against the DNA binding domain of GAL4 to examine in both normoxic and hypoxic cells the intracellular localization of the GAL4-HIF-1α fusion protein by immunofluorescence.
Transcriptional activity of GFP and GAL4 fusion constructs was analyzed in a cotransfection assay where effector plasmids (0.2 μg/30-mm dish) together with a reporter gene (1.5 μg/30-mm dish) were introduced into COS7 or HeLa cells. The reporter plasmid encoded firefly luciferase gene under the control of thymidine kinase minimal promoter and either five or three copies of GAL4 or HIF-responsive elements, respectively.

[2] = target: GST/Ref-1 (Homo sapiens, UniProt P27695); assay: Pull-down of [35S]methionine-labeled GAL4/HIF proteins with GST/Ref-1; type: binding; conditions: presence or absence of diamide
Experimental: The precise mechanism by which Ref-1 activates HIF-1α is not known. […] To further investigate whether Ref-1 could interact with HIF-1α, we tried to trap the interaction by using a crosslinking reagent such as diamide, which oxidizes cysteine sulfhydryls to disulfides. A series of experiments was performed with GST-tagged purified Ref-1. [^35S]methionine-labeled in vitro translated GAL4/HIF 1-826 was incubated with GST/Ref-1 in the presence or absence of diamide.
Next, we tried a series of pull-down experiments with [^35S]methionine-labeled in vitro translated GAL4/HIF […] and GAL4/HIF 531-584. […] An interaction between GAL4/HIF […] and GST/Ref-1 was also detected, and this interaction was enhanced in the presence of diamide. In excellent agreement with this observation the C-TAD contains two cysteine residues. […] Immunoblot analysis verified that the input concentrations of GST/Ref-1 or GST alone were similar.

Sequence of GST/Ref-1 (P27695 whole entry, species assumed, the tested form may be a part): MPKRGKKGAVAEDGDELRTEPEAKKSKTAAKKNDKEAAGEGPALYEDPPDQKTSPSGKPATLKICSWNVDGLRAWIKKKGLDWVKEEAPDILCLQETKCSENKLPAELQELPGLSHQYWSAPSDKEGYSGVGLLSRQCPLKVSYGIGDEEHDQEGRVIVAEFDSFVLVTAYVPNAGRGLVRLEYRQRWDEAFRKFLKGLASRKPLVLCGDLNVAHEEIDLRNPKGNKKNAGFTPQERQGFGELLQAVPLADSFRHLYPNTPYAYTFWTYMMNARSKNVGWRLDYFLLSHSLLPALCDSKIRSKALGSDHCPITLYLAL

Molecule | regulation by Ref-1 and the coactivators (in words) ([1]; Ref-1, CBP and SRC-1) | GAL4 reporter transcriptional activity (in words) [1] | binding to GST/Ref-1 (in words) [2] | stimulation of hypoxia-dependent activation response by p300ΔHAT ([1]; absence of SRC-1, hypoxia) [fold] | stimulation of GAL4 reporter activity by coexpressed CBP [1] [fold] | stimulation of GAL4 reporter activity by coexpressed SRC-1 [1] [fold] | hypoxia-dependent activation of GAL4 reporter gene activity ([1]; 1% O2 vs normoxia, no exogenous coactivator)
GAL4/HIF 776-813: GAL4 fusion of C-terminal transactivation domain lacking 13 most carboxy-terminal amino acids (SEQ ID NO: 15) (protein) MKLLSSIEQACDICRLKKLKCSKEKPKCAKCLKNNWECRYSPKTKRSPLTRAHLTEVESRLERLEQLFLLIFPREDLDMILKMDSLQDIKALLTGLFVQDNVNKDAVTDRLASVETDMPLTLRQHRISATSSSEESSNKGQRQLTVSSDLACRLLGQSMDESGLPQLTSYDCEVNAPIQGSRNLL | showed no regulation by Ref-1 and the coactivators | completely abrogated | – | – | – | – | –
GAL4/HIF 531-584: GAL4 chimeric protein spanning the N-terminal transactivation domain of HIF-1α (SEQ ID NO: 13) (protein) MKLLSSIEQACDICRLKKLKCSKEKPKCAKCLKNNWECRYSPKTKRSPLTRAHLTEVESRLERLEQLFLLIFPREDLDMILKMDSLQDIKALLTGLFVQDNVNKDAVTDRLASVETDMPLTLRQHRISATSSSEESSNKGQRQLTVSFKLELVEKLFAEDTEAKNPFSTQDTDLDLEMLAPYIPMDDDFQLRSFDQLSPLE | – | – | bound GST/Ref-1 | 2 | 11 | 1.5 | –
GAL4/HIF 776-826: GAL4 fusion containing the carboxy-terminal transactivation domain of HIF-1α (SEQ ID NO: 14) (protein) MKLLSSIEQACDICRLKKLKCSKEKPKCAKCLKNNWECRYSPKTKRSPLTRAHLTEVESRLERLEQLFLLIFPREDLDMILKMDSLQDIKALLTGLFVQDNVNKDAVTDRLASVETDMPLTLRQHRISATSSSEESSNKGQRQLTVSSDLACRLLGQSMDESGLPQLTSYDCEVNAPIQGSRNLLQGEELLRALDQVN | – | – | detected | – | 29 | 17 | about 2 fold
GAL4/HIF 526-641: GAL4 fusion with N-terminal transactivation domain and proposed inhibitory sequence (protein) MKLLSSIEQACDICRLKKLKCSKEKPKCAKCLKNNWECRYSPKTKRSPLTRAHLTEVESRLERLEQLFLLIFPREDLDMILKMDSLQDIKALLTGLFVQDNVNKDAVTDRLASVETDMPLTLRQHRISATSSSEESSNKGQRQLTVSDMVNEFKLELVEKLFAEDTEAKNPFSTQDTDLDLEMLAPYIPMDDDFQLRSFDQLSPLESSSASPESASPQSTVTVFQQTQIQEPTANATTTTATTDELKTVTKDRMEDIKILIAS | – | complete abrogation of the effect of CBP and SRC-1 | – | – | – | – | –
